Results on one protein are retold here after article PMC11577821.

Substrate in data set [1]: O=C(CCc1ccc(O)cc1)c1c(O)cc(O)cc1O
The data set can be described thus: purified protein. Conditions: UDP-Glc as sugar donor; C-glucosylation.

Substrate in data set [2]: O=C1CC(O)(c2ccc(O)cc2)Oc2cc(O)cc(O)c21
The data set is described as follows: purified protein. Conditions: UDP-Glc as sugar donor; C-glucosylation.

B1: UGT708S6 (Dendrobium catenatum) (protein)
chain: MSSGDTNLPRVLLLPSSGMGHLVPFVRLASALSERCISVSLLAVRPTISAAESLLLSSLPSSLLLDFPIKPLDPSLFPPSSDPFFLQMEALRRSADLLPSFISTCSPPVSSLIIDISIASSFLPVAAAAKIPCFVLFTSSASMLALCSVFAFLSTPTAGADVNIAGGVLKIPTSSLPPPLRDPNHLFTTQFVENGRALAQANGILVNTFSALEPEVLVALNSGAVLPGLPPVIAIGPLPPVKKQPSLPSPALRWLDEQQEKSVMYVSFGSRTAMSKEQIRALGAGLENSGCRFFWVVKSAKVDREEVMEIEELLGEEYAKRVEERGLVVKEWVEQEVVLSHRAVAGFMSHCGWNSVTEAAAAGVRILAWPRMGDQRVNAAVVARSGLGIWPEKWAWEAEERVVAAEEIAVKVREMMRDERLAETAAQVQAEATAAVQEGGSLDQSCGYLLKKL
In general, Km refers to the concentration of substrate that gives half-maximal velocity. The term Vmax denotes the top rate of the reaction or transport when substrate is in excess. One may read the kcat as the maximal rate divided by the concentration of active sites. One may read the kcat/Km as the turnover number divided by the Michaelis constant. In the case of B1, in “purified protein [1]”, the Km is given as 545.831 µM, the Vmax was found to be 9.48 µM/min, the kcat was determined as 0.563 s⁻¹ and the kcat/Km was 1030 M⁻¹ s⁻¹. Besides, in “purified protein [2]”, the Km is on record as 276.900 µM, the Vmax stood at 7.68 µM/min, the kcat came out at 0.907 s⁻¹ and the kcat/Km amounted to 3280 M⁻¹ s⁻¹.
